Values of other authors as cited in article PMC4250281.

Target: 14-3-3 zeta (Homo sapiens) (UniProt P63104)
UniProt P63104, sequence (P63104 whole entry): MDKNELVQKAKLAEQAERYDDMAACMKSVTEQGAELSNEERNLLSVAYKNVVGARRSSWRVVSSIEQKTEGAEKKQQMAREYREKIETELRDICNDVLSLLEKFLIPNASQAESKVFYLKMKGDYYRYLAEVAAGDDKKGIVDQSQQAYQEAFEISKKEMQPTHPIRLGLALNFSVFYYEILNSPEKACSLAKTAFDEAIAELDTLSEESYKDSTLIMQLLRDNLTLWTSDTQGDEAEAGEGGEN

Substance: Raf-1
- Kd: 122 nM
